We go through three molecules from article PMC4148193, “Chromatin Insulator Factors Involved in Long-Range DNA Interactions and Their Role in the Folding of the Drosophila Genome” (PLoS Genetics, 2014).

One data set has as its target T1, CP190 (Drosophila, UniProt Q24478 1-1096).
T1 sequence: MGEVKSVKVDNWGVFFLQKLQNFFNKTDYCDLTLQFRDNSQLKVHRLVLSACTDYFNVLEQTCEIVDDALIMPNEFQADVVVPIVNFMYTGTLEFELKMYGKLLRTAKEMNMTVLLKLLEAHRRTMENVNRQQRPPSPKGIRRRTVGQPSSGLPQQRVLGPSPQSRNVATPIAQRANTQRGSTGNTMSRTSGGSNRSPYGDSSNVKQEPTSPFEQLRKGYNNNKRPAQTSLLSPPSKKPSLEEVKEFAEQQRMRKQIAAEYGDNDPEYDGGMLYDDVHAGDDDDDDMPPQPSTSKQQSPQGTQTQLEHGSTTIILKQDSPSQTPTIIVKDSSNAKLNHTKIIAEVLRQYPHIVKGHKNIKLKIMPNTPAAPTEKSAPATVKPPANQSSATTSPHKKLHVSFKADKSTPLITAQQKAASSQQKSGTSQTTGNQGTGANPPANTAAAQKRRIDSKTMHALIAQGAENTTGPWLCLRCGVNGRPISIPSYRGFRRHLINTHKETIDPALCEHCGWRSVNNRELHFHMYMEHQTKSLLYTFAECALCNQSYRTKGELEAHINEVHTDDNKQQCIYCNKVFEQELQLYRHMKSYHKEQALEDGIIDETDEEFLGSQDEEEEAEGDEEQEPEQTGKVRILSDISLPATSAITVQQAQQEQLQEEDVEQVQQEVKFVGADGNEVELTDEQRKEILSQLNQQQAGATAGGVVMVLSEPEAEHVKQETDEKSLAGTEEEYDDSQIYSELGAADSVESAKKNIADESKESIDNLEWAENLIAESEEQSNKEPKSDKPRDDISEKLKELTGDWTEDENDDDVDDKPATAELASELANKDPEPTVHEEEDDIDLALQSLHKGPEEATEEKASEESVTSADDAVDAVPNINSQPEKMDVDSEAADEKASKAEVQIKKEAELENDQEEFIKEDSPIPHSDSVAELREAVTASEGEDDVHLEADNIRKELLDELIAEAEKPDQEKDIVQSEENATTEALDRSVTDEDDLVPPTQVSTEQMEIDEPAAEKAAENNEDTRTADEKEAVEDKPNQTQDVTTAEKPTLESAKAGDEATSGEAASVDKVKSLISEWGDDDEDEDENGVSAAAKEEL
In words: fluorescence anisotropy; Hill n=2±0.3; 20 uM ZnSO4; FA/FCS: 30 mM Tris/HCl pH 7.5, 100 mM NaCl, 20 uM ZnSO4, 5 mM mercaptoethanol, 0.01 mg/ml BSA, 0.004% Tween20, 2.5 nM DNA; EMSA: 150 mM NaCl, 30 mM Tris/HCl pH. Conditions: protein: recombinant; tags: N-term 6xHis; blunt. On the technique in general: Polarisation of emitted light reports the rotation of a fluorescent probe.

Another data set concerns the target T2, BEAF32 (BEAF32B) (Drosophila, UniProt Q94513 1-282).
T2 sequence: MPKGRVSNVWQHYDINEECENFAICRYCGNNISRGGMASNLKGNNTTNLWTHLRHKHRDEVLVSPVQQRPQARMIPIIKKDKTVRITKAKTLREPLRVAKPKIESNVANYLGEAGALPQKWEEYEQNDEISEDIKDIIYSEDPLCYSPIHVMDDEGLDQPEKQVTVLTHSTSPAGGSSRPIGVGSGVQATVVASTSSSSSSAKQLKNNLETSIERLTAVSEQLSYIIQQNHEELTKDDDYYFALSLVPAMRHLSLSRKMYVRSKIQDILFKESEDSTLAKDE
In words: fluorescence anisotropy; single-site fit; 20 uM ZnSO4; FA/FCS: 30 mM Tris/HCl pH 7.5, 100 mM NaCl, 20 uM ZnSO4, 5 mM mercaptoethanol, 0.01 mg/ml BSA, 0.004% Tween20, 2.5 nM DNA; EMSA: 150 mM NaCl, 30 mM Tris/HCl pH. Conditions: protein: recombinant; tags: N-term MBP; C-term 6xHis; blunt.

Data set [1] concerns the molecule itself. In words: SEC; gel-filtration analysis of CP190-BTB/POZ; conditions not shown. In general terms: In gel filtration, larger molecules generally elute earlier.
Data set [2] deals with T3, Chromator, full-length, His-tagged (Drosophila, UniProt Q86BS3 1-926).
T3 construct: Chromator (Chriz), Drosophila; amplified from S2 cell cDNA; also called Chriz; source: E. coli BL21 (DE3)-pLysS, purified
T3 sequence (looked up): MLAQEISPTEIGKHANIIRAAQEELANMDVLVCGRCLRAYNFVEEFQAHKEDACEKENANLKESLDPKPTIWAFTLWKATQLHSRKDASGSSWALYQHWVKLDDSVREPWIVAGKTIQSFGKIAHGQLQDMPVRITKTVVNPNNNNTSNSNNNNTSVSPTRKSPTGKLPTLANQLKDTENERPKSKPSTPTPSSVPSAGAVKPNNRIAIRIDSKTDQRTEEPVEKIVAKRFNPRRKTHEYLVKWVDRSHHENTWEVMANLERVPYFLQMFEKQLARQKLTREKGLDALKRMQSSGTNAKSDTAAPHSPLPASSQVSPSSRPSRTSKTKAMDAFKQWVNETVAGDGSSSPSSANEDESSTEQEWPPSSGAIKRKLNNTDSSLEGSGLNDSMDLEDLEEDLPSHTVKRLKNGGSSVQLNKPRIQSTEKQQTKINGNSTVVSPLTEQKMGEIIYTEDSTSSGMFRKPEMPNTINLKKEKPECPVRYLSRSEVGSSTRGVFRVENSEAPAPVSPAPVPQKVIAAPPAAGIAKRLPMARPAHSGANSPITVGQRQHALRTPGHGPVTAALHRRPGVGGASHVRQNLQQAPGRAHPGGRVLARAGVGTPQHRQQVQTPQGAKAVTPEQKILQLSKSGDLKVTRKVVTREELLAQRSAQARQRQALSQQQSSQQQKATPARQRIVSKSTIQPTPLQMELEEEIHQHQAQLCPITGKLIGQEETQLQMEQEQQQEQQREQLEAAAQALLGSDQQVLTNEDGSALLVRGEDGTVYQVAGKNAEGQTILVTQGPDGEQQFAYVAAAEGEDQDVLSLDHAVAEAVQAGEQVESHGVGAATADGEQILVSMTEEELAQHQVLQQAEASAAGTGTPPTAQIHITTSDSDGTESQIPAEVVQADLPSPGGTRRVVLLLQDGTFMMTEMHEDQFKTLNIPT
In words: fluorescence polarisation; fluorescence anisotropy of CP190-BTB/POZ-Cy5 as reporter of Chromator binding; apparent affinity. The following applies: both partners purified.

B1: DNANS (dsDNA)
DNA 1: GGACAGGTATTGTGCCATACTGACCACATCGTCTTGGTCTATAAGCTCCACGACATCC
DNA 2: GGATGTCGTGGAGCTTATAGACCAAGACGATGTGGTCAGTATGGCACAATACCTGTCC
As to B1, the values for the Kd with CP190 and with BEAF32 (BEAF32B) were 109 ± 5 nM and 165 ± 30 nM, respectively.

B2: CP190-BTB/POZ (BTB/POZ domain of CP190), His-tagged (domain or fragment, Drosophila)
chain: MGEVKSVKVDNWGVFFLQKLQNFFNKTDYCDLTLQFRDNSQLKVHRLVLSACTDYFNVLEQTCEIVDDALIMPNEFQADVVVPIVNFMYTGTLEFELKMYGKLLRTAKEMNMTVLLKLLEAHRRTMENVNRQQR
notes: N-terminal BTB/POZ domain of CP190, Drosophila; source: E. coli BL21 (DE3)-pLysS, purified
Broadly, the stoichiometry N is a count of units in the complex or per binding partner. Turning to B2, the “stoichiometry N” value in data set [1] was found to be 2.

B3: CP190-BTB/POZ-Cy5 (CP190-BTB/POZ Cy5-labelled on its N-terminal) (domain or fragment, Drosophila)
chain: B2 chain
modifications: Cy5 on the N-terminal
notes: N-terminal BTB/POZ domain of CP190, Drosophila; same construct as m4, labelled with Cy5; Same protein as m4 with a Cy5 label; source: E. coli BL21 (DE3)-pLysS, purified
Take B3: the Kd in data set [2] is about 50 nM.
